From patent US20250074999A1 (PENTIXAPHARM, published 2025)
Residue numbers refer to the chain shown, from its start.

T1: O-glycosylated LYPD3-STP-ECD (expressed in and purified from NM-F9 cells) (human, UniProt O95274 234-303, O-glycosylated on Ser/Thr by NM-F9 cells: predominantly TF (Galβ1-3GalNAcα1-), lower amounts of Tn)
T1 construct: also called NM-F9-derived LYPD3-STP; STP-rich C-terminal part of the ECD; not shown: fusion partner for purification and detection, e.g. Twin-Strep-tag, MBL or polyhistidine tag; which one and at which end
T1 sequence: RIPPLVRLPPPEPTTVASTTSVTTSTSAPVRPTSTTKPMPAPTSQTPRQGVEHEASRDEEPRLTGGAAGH

B1: 21E9-222 (antibody, V domains shown)
VH: EVQLVESGGGLVQPGGSLRLSCAASGFDFSNYYYMCWVRQAPGKGLEWVSCIAAGSGGYTYYASWAKGRFTISRDNSKNTLYLQMNSLRAEDTAVYYCASSGDYKGFNLWGQGTLVTVS
VL: DIVMTQSPSSLSASVGDRVTITCQASQSISSYLAWYQQKPGKPPKLLIYGASNLASGVPSRFSGSGSGTDFTLTISSLQPEDVATYYCQGYYYSFSDIFAFGGGTKVEI
notes: Humanized 21E9; also called humanized aLYPD3 antibody 21E9-222
B2: 21E9-227 (antibody, V domains shown)
VH: B1 VH with E1Q, Q13K, V38I, S77A, T80S
VL: B1 VL with D1A, V3R, M4I, T5A, V15T, P43A, S77C, P80S, V83F, G103Q
notes: Humanized 21E9; also called humanized aLYPD3 antibody 21E9-227
B3: 21E9-228 (antibody, V domains shown)
VH: B1 VH with E1Q, V5Q, S50L, V95I
VL: B1 VL with D1A, V3R, M4I, T5A, V15T, P43A, S77C, P80S, V83F, G103Q
notes: Humanized 21E9; also called humanized aLYPD3 antibody 21E9-228
B4: 21E9-224 (antibody, V domains shown)
VH: B1 VH
VL: B1 VL with D1E, P43A, V83F
notes: Humanized 21E9; also called humanized aLYPD3 antibody 21E9-224
B5: 21E9-226 (antibody, V domains shown)
VH: B1 VH
VL: B1 VL with D1E, V107L
notes: Humanized 21E9; also called humanized aLYPD3 antibody 21E9-226
B6: 21E9-220 (antibody, V domains shown)
VH: B1 VH with E1Q, V5Q, S50L, V95I
VL: B1 VL
notes: Humanized 21E9; also called humanized aLYPD3 antibody 21E9-220
B7: 21E9-225 (antibody, V domains shown)
VH: B1 VH
VL: B1 VL with D1A, V3R, M4I, T5A, V15T, P43A, S77C, P80S, V83F, G103Q
notes: Humanized 21E9; also called humanized aLYPD3 antibody 21E9-225
B8: 21E9-221 (antibody, V domains shown)
VH: B1 VH with L115M
VL: B1 VL
notes: Humanized 21E9; also called humanized aLYPD3 antibody 21E9-221
B9: 21E9-219 (antibody, V domains shown)
VH: B1 VH with E1L, Q13K, V38I, S77A, T80S, Y96W
VL: B1 VL
notes: Humanized 21E9; also called humanized aLYPD3 antibody 21E9-219

What follows are binders tested against T1, O-glycosylated LYPD3-STP-ECD (expressed …) (assay: ELISA and flow cytometry (FIGS. 14, 15 and 16)).
Protocol: Briefly, differently glycosylated and non-glycosylated protein antigens or glycans conjugated to carbohydrate-polyacrylamide conjugates (carbohydrate PAA-conjugates, GlycoNZ) were coated to 96-well plates overnight, unspecific binding was blocked and test antibody samples were added. In some assays an anti-huLYPD3 huIgG1 control monoclonal Ab was used, that was purified from CHO cell supernatant after expression of the antibody sequence derived from patent application WO 2011/070088 A1 (SEQ ID NOs: 51 and 52 of WO 2011/070088) (“aLYPD3 mAb”). This control anti-huLYPD3 antibody binds to the extracellular domain of human LYPD3 in a glycosylation-independent manner. To control protein antigen coating to the ELISA plates anti-huLYPD3 rabbit polyclonal antibody (R&D Systems, cat. no. AF5428) (“aLYPD3 pAb”) or a-MBL antibody (Novusbio) (“aMBL”) for constructs expressed as MBL fusion protein were used. Antibodies recognizing specific glycan structures were used to detect glycosylation of the coated proteins. Anti-TFa (“aTF”) antibody clone HH8 was kindly provided by Prof. Clausen, University of Copenhagen. Antibodies specifically recognizing Tn (“aTn”) were either purchased from SBH Sciences or also provided by Prof. Clausen, University of Copenhagen (clone 5F4). Afterwards, peroxidase conjugated anti-IgG secondary antibody was added, followed by 3,3′,5,5′-tetramethylbenzidine (TMB) substrate reaction. Antibody binding rates were determined by measurement absorbance at 450 nm and 620 or 630 nm as reference wavelength using a multimode microplate reader (PerkinElmer EnSpire 2300 or Tecan Spark).
Binding of aLYPD3 clones to cell lines with different glycosylation status of LYPD3 was tested. LYPD3-transfected NM-F9 (LYPD3-F9), expressing LYPD3 carrying non-sialylated O-glycans, not transfected NM-F9 (corresponding WT cells), expressing endogenous level of LYPD3, and LYPD3-transfected HEK-O-glyc KO (LYPD3-HEK-O-glyc. KO) expressing LYPD3 without O-glycans, were stained with aLYPD3 clones and detected via fluorophore-coupled anti-human-IgG secondary reagent. Expression of LYPD3 and TFa was confirmed using control aLYPD3 pAb and mAb and aTF mAb. To determine background staining, an irrelevant hIgG1 control was included. DAPI was used to discriminate live from dead cells. Cells were analyzed using a Canto II (BD) flow cytometer.

Row | binding result | Binder
1 | binds | B1
2 | binds | B2
3 | binds | B3
4 | binds | B4
5 | binds | B5
6 | binds | B6
7 | binds | B7
8 | binds | B8
9 | binds | B9
